According to patent publication US20190161539A1:

Experiments:
Aβ 1-40 peptide (human) = test: KinExA 3000, equilibrium in solution with human soluble Abeta (1-40), 37° C.
[1] = molecular target: β-amyloid peptide (1-42) conjugated to BSA; test: competition ELISA on coated Aβ1-42-BSA against biotinylated Mu266, first set of three experiments
[2] = molecular target: β-amyloid peptide (1-42) conjugated to BSA; test: competition ELISA on coated Aβ1-42-BSA against biotinylated Mu266, second set of three experiments

Kd (Aβ 1-40 peptide (human)) [nM]	IC50 [1] [µg/mL]	IC50 [2] [µg/mL]	Substance
0.24			m266-Fab
	4.7	3.87	Mouse monoclonal antibody 266 (Mu266)
